Residue numbers refer to the chain shown, from its start. Names and notes keep the numbering of the source.

Here are results for 55 molecules from paper PMC12416549 (2024).

Sequences and labels used below:
T1: TNFR1 (Homo sapiens, UniProt P19438)
T1 chain: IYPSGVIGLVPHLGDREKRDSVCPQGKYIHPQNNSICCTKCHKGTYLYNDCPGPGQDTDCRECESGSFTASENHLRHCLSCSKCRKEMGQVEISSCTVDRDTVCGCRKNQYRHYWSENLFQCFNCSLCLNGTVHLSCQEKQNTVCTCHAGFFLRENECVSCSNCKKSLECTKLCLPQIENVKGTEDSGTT

B1: L26R (designed binder)
chain: MTLQELLREEALRRAEAEAFRYALERLAEKFPEQKEYLLDLAEEIESQIRSLSGVDVEDVRKFLDKEWAWVKELLAEHPAELAEVEAARAARLAELRAEVEAKVAA
B2: K30S (designed binder)
chain: B1 chain with R26L, K30S
B3: K30V (designed binder)
chain: B1 chain with R26L, K30V
B4: E36L (designed binder)
chain: B1 chain with R26L, E36L
B5: A17T (designed binder)
chain: B1 chain with A17T, R26L
B6: L12T (designed binder)
chain: B1 chain with L12T, R26L
B7: S51H (designed binder)
chain: B1 chain with R26L, S51H
B8: E9W (designed binder)
chain: B1 chain with E9W, R26L
B9: A15F (designed binder)
chain: B1 chain with A15F, R26L
B10: Q34W (designed binder)
chain: B1 chain with R26L, Q34W
B11: A91V (designed binder)
chain: B1 chain with R26L, A91V
B12: L38H (designed binder)
chain: B1 chain with R26L, L38H
B13: E25G (designed binder)
chain: B1 chain with E25G, R26L
B14: E86W (designed binder)
chain: B1 chain with R26L, E86W
B15: I45W (designed binder)
chain: B1 chain with R26L, I45W
B16: L3A (designed binder)
chain: B1 chain with L3A, R26L
B17: Q4M (designed binder)
chain: B1 chain with Q4M, R26L
B18: L75E (designed binder)
chain: B1 chain with R26L, L75E
B19: Q4K (designed binder)
chain: B1 chain with Q4K, R26L
B20: R21Y (designed binder)
chain: B1 chain with R21Y, R26L
B21: G54H (designed binder)
chain: B1 chain with R26L, G54H
B22: E33F (designed binder)
chain: B1 chain with R26L, E33F
B23: E33R (designed binder)
chain: B1 chain with R26L, E33R
B24: A80S (designed binder)
chain: B1 chain with R26L, A80S
B25: V104T (designed binder)
chain: B1 chain with R26L, V104T
B26: E101F (designed binder)
chain: B1 chain with R26L, E101F
B27: L3N (designed binder)
chain: B1 chain with L3N, R26L
B28: L52N (designed binder)
chain: B1 chain with R26L, L52N
B29: E29R (designed binder)
chain: B1 chain with R26L, E29R
B30: E9G (designed binder)
chain: B1 chain with E9G, R26L
B31: A11L (designed binder)
chain: B1 chain with A11L, R26L
B32: R21D (designed binder)
chain: B1 chain with R21D, R26L
B33: A91D (designed binder)
chain: B1 chain with R26L, A91D
B34: L93P (designed binder)
chain: B1 chain with R26L, L93P
B35: L74R (designed binder)
chain: B1 chain with R26L, L74R
B36: K66L (designed binder)
chain: B1 chain with R26L, K66L
B37: A87H (designed binder)
chain: B1 chain with R26L, A87H
B38: K66E (designed binder)
chain: B1 chain with R26L, K66E
B39: E86A (designed binder)
chain: B1 chain with R26L, E86A
B40: F20S (designed binder)
chain: B1 chain with F20S, R26L
B41: R8T (designed binder)
chain: B1 chain with R8T, R26L
B42: Y37K (designed binder)
chain: B1 chain with R26L, Y37K
B43: R21P (designed binder)
chain: B1 chain with R21P, R26L
B44: L27R (designed binder)
chain: B1 chain with R26L, L27R
B45: K30R (designed binder)
chain: B1 chain with R26L, K30R
B46: L64V (designed binder)
chain: B1 chain with R26L, L64V
B47: E43Q (designed binder)
chain: B1 chain with R26L, E43Q
B48: F63K (designed binder)
chain: B1 chain with R26L, F63K
B49: E9V (designed binder)
chain: B1 chain with E9V, R26L
B50: A98R (designed binder)
chain: B1 chain with R26L, A98R
B51: E86D (designed binder)
chain: B1 chain with R26L, E86D
B52: I49H (designed binder)
chain: B1 chain with R26L, I49H
B53: Y22A (designed binder)
chain: B1 chain with Y22A, R26L
B54: V60P (designed binder)
chain: B1 chain with R26L, V60P
B55: A19E (designed binder)
chain: B1 chain with A19E, R26L

In this assay the target is T1, TNFR1. As to the kind of experiment: yeast display SC50.
Turning to B1, the “apparent Kd (screen)” value is 0.446 nM.

Turning to B2, the “apparent Kd (screen)” value came out at 0.718 nM.

Consider B3, for which the “apparent Kd (screen)” value amounted to 0.446 nM.

As to B4, the “apparent Kd (screen)” value turned out to be 0.539 nM.

Turning to B5, the “apparent Kd (screen)” value stood at 0.446 nM.

For B6, the “apparent Kd (screen)” value turned out to be 0.718 nM.

B7: the “apparent Kd (screen)” value was 0.304 nM.

On to B8, for which the “apparent Kd (screen)” value was determined as 0.405 nM.

Regarding B9, the “apparent Kd (screen)” value is 0.653 nM.

Consider B10, for which the “apparent Kd (screen)” value worked out at 1.69 nM.

On to B11, for which the “apparent Kd (screen)” value came to 0.539 nM.

On to B12, for which the “apparent Kd (screen)” value was determined as 0.79 nM.

As for B13, the “apparent Kd (screen)” value came to 0.49 nM.

As for B14, the “apparent Kd (screen)” value was found to be 2.73 nM.

B15: the “apparent Kd (screen)” value is 0.718 nM.

Turning to B16, the “apparent Kd (screen)” value is 2.73 nM.

Take B17: the “apparent Kd (screen)” value came to 0.49 nM.

Regarding B18, the “apparent Kd (screen)” value came out at 0.653 nM.

On to B19, for which the “apparent Kd (screen)” value came to 0.49 nM.

On to B20, for which the “apparent Kd (screen)” value is 0.49 nM.

In the case of B21, the “apparent Kd (screen)” value amounted to 11.4 nM.

For the molecule B22, the “apparent Kd (screen)” value is 0.956 nM.

On to B23, for which the “apparent Kd (screen)” value was determined as 0.49 nM.

Regarding B24, the “apparent Kd (screen)” value was 0.869 nM.

Consider B25, for which the “apparent Kd (screen)” value is 0.956 nM.

As for B26, the “apparent Kd (screen)” value was determined as 0.593 nM.

As to B27, the “apparent Kd (screen)” value came out at 24.4 nM.

With B28, the “apparent Kd (screen)” value was found to be 2.73 nM.

On to B29, for which the “apparent Kd (screen)” value came out at 0.49 nM.

With B30, the “apparent Kd (screen)” value was found to be 1.69 nM.

As for B31, the “apparent Kd (screen)” value is 2.05 nM.

Turning to B32, the “apparent Kd (screen)” value is 0.539 nM.

In the case of B33, the “apparent Kd (screen)” value came out at 0.49 nM.

With B34, the “apparent Kd (screen)” value was 1.69 nM.

Turning to B35, the “apparent Kd (screen)” value was 12.5 nM.

In the case of B36, the “apparent Kd (screen)” value amounted to 0.49 nM.

As to B37, the “apparent Kd (screen)” value is 0.49 nM.

With B38, the “apparent Kd (screen)” value was found to be 0.869 nM.

As for B39, the “apparent Kd (screen)” value is 0.956 nM.

On to B40, for which the “apparent Kd (screen)” value came out at 1.05 nM.

As to B41, the “apparent Kd (screen)” value is 0.79 nM.

In the case of B42, the “apparent Kd (screen)” value came out at 0.539 nM.

As for B43, the “apparent Kd (screen)” value came to 0.49 nM.

Take B44: the “apparent Kd (screen)” value was determined as 0.49 nM.

Consider B45, for which the “apparent Kd (screen)” value stood at 0.593 nM.

For B46, the “apparent Kd (screen)” value was determined as 13.8 nM.

B47: the “apparent Kd (screen)” value stood at 0.956 nM.

On to B48, for which the “apparent Kd (screen)” value was determined as 5.31 nM.

On to B49, for which the “apparent Kd (screen)” value was determined as 0.869 nM.

Turning to B50, the “apparent Kd (screen)” value is 0.653 nM.

For B51, the “apparent Kd (screen)” value came to 0.446 nM.

Regarding B52, the “apparent Kd (screen)” value was 0.304 nM.

With B53, the “apparent Kd (screen)” value is 0.79 nM.

B54: the “apparent Kd (screen)” value turned out to be 12.5 nM.

With B55, the “apparent Kd (screen)” value amounted to 0.956 nM.
